{"source": "paper PMC2792576", "target": "human cyclic nucleotide-gated channel β1-subunit, wild type (human) (UniProt Q14028)", "sequence (Q14028 whole entry)": "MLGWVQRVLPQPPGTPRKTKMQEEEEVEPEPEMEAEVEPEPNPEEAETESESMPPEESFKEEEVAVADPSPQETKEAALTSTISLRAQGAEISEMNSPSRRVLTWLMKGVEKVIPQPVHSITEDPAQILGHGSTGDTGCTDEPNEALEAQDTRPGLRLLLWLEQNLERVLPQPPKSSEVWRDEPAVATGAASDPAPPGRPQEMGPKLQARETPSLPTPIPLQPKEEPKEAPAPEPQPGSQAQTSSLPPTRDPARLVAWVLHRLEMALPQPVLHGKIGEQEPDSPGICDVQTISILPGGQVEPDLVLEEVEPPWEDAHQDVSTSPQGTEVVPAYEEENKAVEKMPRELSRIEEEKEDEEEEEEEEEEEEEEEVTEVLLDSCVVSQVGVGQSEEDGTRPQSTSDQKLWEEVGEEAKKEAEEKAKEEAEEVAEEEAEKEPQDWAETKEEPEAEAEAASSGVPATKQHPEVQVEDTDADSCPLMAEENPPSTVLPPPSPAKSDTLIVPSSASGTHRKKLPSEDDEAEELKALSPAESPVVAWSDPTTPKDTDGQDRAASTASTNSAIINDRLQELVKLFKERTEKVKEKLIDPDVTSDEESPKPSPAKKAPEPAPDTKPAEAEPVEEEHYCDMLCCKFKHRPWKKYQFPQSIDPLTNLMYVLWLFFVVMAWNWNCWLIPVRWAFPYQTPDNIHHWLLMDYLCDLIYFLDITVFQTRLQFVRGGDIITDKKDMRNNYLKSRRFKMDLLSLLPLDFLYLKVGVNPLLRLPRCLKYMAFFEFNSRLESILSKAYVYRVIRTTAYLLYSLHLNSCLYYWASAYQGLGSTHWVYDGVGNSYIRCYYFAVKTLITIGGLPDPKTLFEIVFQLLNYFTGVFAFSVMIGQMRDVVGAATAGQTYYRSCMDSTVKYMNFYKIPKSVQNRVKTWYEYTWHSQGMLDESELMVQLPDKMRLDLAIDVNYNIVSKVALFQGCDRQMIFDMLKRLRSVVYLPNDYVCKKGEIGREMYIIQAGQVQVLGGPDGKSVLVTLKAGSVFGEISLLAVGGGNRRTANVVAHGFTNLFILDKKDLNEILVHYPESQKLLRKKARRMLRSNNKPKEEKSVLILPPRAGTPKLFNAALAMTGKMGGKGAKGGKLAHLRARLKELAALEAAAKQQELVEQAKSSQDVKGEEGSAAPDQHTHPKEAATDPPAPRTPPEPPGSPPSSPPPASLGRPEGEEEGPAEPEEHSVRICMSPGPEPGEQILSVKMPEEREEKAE", "assay": "HEK 293 plasma membrane recruitment assay"}
{"substance": "ankyrin-G fused to green fluorescent protein, O70511 1-2622", "values": [{"measurement": "cells with complete recruitment", "value": "65 % of cells"}]}
